# In patent publication US20030113867A1:
# B1: recombinant refolded human prokineticin 1 with C-terminal 6xHis-tag (ligand)
# chain: AVITGACERDVQCGAGTCCAISLWLRGLRMCTPLGREGEECHPGSHKVPFFRKRKHHTCPCLPNLLCSRFPDGRYRCSMDLKNINFHHHHHH
# modifications: 125I-iodinated by the iodogen method where used as the labeled ligand; plain where used as unlabeled competitor; five disulfide bonds
# B2: chimeric prokineticin 12 (exons 1 and 2 of prokineticin 1, exon 3 of prokineticin 2) (ligand)
# chain: AVITGACERDVQCGAGTCCAISLWLRGLRMCTPLGREGEECHPGSHKVPFFGRRMHHTCPCLPGLACLRTSFNRFICLAQK
# B3: chimeric prokineticin 21 (exons 1 and 2 of prokineticin 2, exon 3 of prokineticin 1) (ligand)
# chain: AVITGACDKDSQCGGGMCCAVSIWVKSIRICTPMGKLGDSCHPLTRKVPFFRKRKHHTCPCLPNLLCSRFPDGRYRCSMDLKNINF
# B4: recombinant refolded human prokineticin 2 with C-terminal 6xHis-tag (ligand)
# chain: AVITGACDKDSQCGGGMCCAVSIWVKSIRICTPMGKLGDSCHPLTRKVPFFGRRMHHTCPCLPGLACLRTSFNRFICLAQKHHHHHH
# Assays:
# [1] = biological target: prokineticin receptor(s) of guinea pig ileal smooth muscle (ileal membrane preparation / ileum longitudinal muscle) (guinea pig); assay: competition radioligand binding on guinea pig ileal membranes, filtration; unlabeled prokineticin 1 varied against 125I-prokineticin 1 (20 pM)
# [2] = biological target: prokineticin receptor(s) of guinea pig ileal smooth muscle (ileal membrane preparation / ileum longitudinal muscle) (guinea pig); assay: saturation binding of 125I-prokineticin 1 to guinea pig ileal membranes, Scatchard analysis, two-site model, high-affinity site, n=3
# [3] = biological target: prokineticin receptor(s) of guinea pig ileal smooth muscle (ileal membrane preparation / ileum longitudinal muscle) (guinea pig); assay: displacement of 125I-prokineticin 1 (20 pM) from guinea pig ileal membranes by unlabeled prokineticin 1, two-site model, high-affinity site
# [4] = biological target: prokineticin receptor(s) of guinea pig ileal smooth muscle (ileal membrane preparation / ileum longitudinal muscle) (guinea pig); assay: cell-based or functional assay
# [5] = biological target: prokineticin receptor expressed endogenously on M2A7 melanoma cells (ATCC CRL-2500); assay: cell-based or functional assay
# [6] = biological target: prokineticin receptor(s) of guinea pig ileal smooth muscle (ileal membrane preparation / ileum longitudinal muscle) (guinea pig); assay: saturation binding of 125I-prokineticin 1 to guinea pig ileal membranes, low-affinity site, n=3
# [7] = biological target: prokineticin receptor(s) of guinea pig ileal smooth muscle (ileal membrane preparation / ileum longitudinal muscle) (guinea pig); assay: displacement of 125I-prokineticin 1 (20 pM) from guinea pig ileal membranes by unlabeled prokineticin 1, two-site model, low-affinity site
# [8] = biological target: prokineticin receptor(s) of guinea pig ileal smooth muscle (ileal membrane preparation / ileum longitudinal muscle) (guinea pig); assay: saturation binding of 125I-prokineticin 1 to guinea pig ileal membranes, high-affinity site, n=3
# [9] = biological target: prokineticin receptor expressed endogenously on M2A7 melanoma cells (ATCC CRL-2500); assay: binding of iodinated prokineticin 1 to M2A7 melanoma cells
# [10] = biological target: prokineticin receptor(s) of guinea pig ileal smooth muscle (ileal membrane preparation / ileum longitudinal muscle) (guinea pig); assay: saturation binding of 125I-prokineticin 1 to guinea pig ileal membranes, Scatchard analysis, two-site model, low-affinity site, n=3
# [11] = biological target: prokineticin receptor(s) of guinea pig ileal smooth muscle (ileal membrane preparation / ileum longitudinal muscle) (guinea pig); assay: competition radioligand binding on guinea pig ileal membranes, filtration; unlabeled prokineticin 2 varied against 125I-prokineticin 1 (20 pM)
# [12] = biological target: prokineticin receptor(s) of guinea pig ileal smooth muscle (ileal membrane preparation / ileum longitudinal muscle) (guinea pig); assay: displacement of 125I-prokineticin 1 (20 pM) from guinea pig ileal membranes by unlabeled prokineticin 2, high-affinity site
# [13] = biological target: prokineticin receptor(s) of guinea pig ileal smooth muscle (ileal membrane preparation / ileum longitudinal muscle) (guinea pig); assay: displacement of 125I-prokineticin 1 (20 pM) from guinea pig ileal membranes by unlabeled prokineticin 2, low-affinity site
binder,measurement,setting,value
B1,IC50 (read off the curve),[1],5 nM
same,Kd,[2],0.005 nM
same,Ki,[3],0.008 nM
same,"contraction of guinea-pig ileum longitudinal muscle, ED50",[4],0.46 nM
same,time constant to midway contraction of ileal strips,[4],15 min
same,"calcium mobilization in M2A7 melanoma cells (FLIPR), EC50",[5],12 nM
same,Bmax (fmol/mg of protein),[6],26.4
same,Ki,[7],1.5 nM
same,Bmax (fmol/mg of protein),[8],7.8
same,receptor level (fmole/mg protein),[9],150
same,Kd,[10],0.227 nM
B2,time constant to midway contraction of ileal strips,[4],40 min
B3,EC50 of ileal contraction relative to prokineticin 1 or prokineticin 2,[4],8 fold
same,time constant to midway contraction of ileal strips,[4],40 min
B4,IC50 (read off the curve),[11],4 nM
same,Ki,[12],0.0042 nM
same,"contraction of guinea-pig ileum longitudinal muscle, ED50",[4],0.9 nM
same,time constant to midway contraction of ileal strips,[4],15 min
same,"calcium mobilization in M2A7 melanoma cells (FLIPR), EC50",[5],21 nM
same,Ki,[13],1.22 nM
